# Test results from patent publication EP1398371A1.
# What was measured:
# [1] = molecular target: HCV E2 glycoprotein of genotype 1a (Hepatitis C virus genotype 1a) (UniProt P27958); test: cell-based or functional assay
# [2] = molecular target: human CD81 (human) (UniProt P60033); test: cell-based or functional assay
Substance,"inhibition of infectivity of HCVpp on Huh-7 cells (hCD81-LEL at 4, 8, 16 µg/ml pre-incubated with the particles) [1] [%]",inhibition of infection by HCVpp of genotypes 1a and 1b after pre-incubation of the target cells with antibody (30 µg/ml) [2] [%]
recombinant GST-fusion polypeptide encompassing the large extra-cellular loop (LEL) of human CD81 (from UniProt P60033 113-201),38 to 54,–
JS-81 anti-CD81 monoclonal antibody (Pharmingen),–,> 90
